Test: protease stability score; higher = more stable; yeast display proteolysis, trypsin and chymotrypsin;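 further: relative to predicted unfolded state with 0 unfolded-like and 1 meaning tenfold more protease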

Sequence	protease stability score
SELEEIAEEVARRFSHFIETGDEEKLWKYFDPHVKIDIDIDGRTKELHGMERFVFFIRYLGLDRVELRDHRIEIQGEKAILDGTTHINGRTRKTNFHIFVFNGRIKFMQVHII	1.48
SELEEILKIARRFFEIVMRTGDPRDIERLLDPNAKLIIDGQEIHGREKMSNTFEEMVRRYDVVKSIEDKDWKIVNGRVDLDITLNGRVDGKDISTRVIIHVEKINGRWFMREVNIE	2.14
SELEEITEKAIRMDLQHEETGDWKKYSDMIDPHARFIVNGVEFVGRHFLLKWFLDVAKRVDHSRMHVDHEEHVDGRIHVDFRFELIFDGREYRIRSHIVADKIDGQWYFRQIRFQ	1.29
SELEEITRRVWERLVRDLRTGDEKSLQEMLDPNVRSDFNGVELIGRELATKLIAELRIHDVKVEDVKFQGDKMTLDTKIDGEVNGKRHEFKHTLIFVKVDGQWMIETEEFH	1.26
SELEEKAREMLTLLHKFWRTGNEEFFTKLFDPDMKLTVGDKEYIGMEDVTEYFVKWTREARLTDQETTDIEYYDGRLRIHVEMDVKQGDKRRKLESIIILLKVDGRWFATKVEIR	0.928
SELEEKTEKWARLFWLLYKTGDWETLEKLLDPHVRSEINGKEEHGRENMIRMLVDLLRLLGIDHIELHHIEFVNGKVIIHLSLHAENHSSELIIEVNIINGKIESIRIEVR	1.09
SELEELMHKFAKLFIHLWETGNEELLTKMADPNTRLIINGREVIGMERLLEVFHYIKTEIRLDTMRLEHIDWQGNKAHSHTRLHGEFNGRRHEDESEIHIRVIDGRVHTFEIRFK	1.2
SELEELMKRLVKDWLHNWITGNEDRIWELADPDALVHFDGVISHGREEVIKLIRRFTEELRIHRIQIDHIKIQGDKIHIHLTEDGTIGDKRKEINVEIILFIINGKFKSSEIRIR	1.49
SELEELSKEALERHNKDLRTGDWEELWRLLDPNVKLIVNGRHVHGREDATKFLLDWVRQVDHIRSIHIEDYKFQGNKLILHVRYQMDVDGKRDSREMTIYASKVDGRWIVESIEFR	1.64
SELEELSKHHLELLTHSHRTGDEKSFVELLDPHARIHQGDFHFHGRKLIDEFFRQARIHHIHVDDSELQGNWVFVHGRVEGNFNGVRSKITTHIIELKVNGRWLLHNVHIA	0.779
SELEELTEEAVKHILHIWETGDEEMSHDLVDPHVRVHVNGQKYHGRENAVEHISKLKGAKWHLRRFEVIDGKIHVDGQFHFNGRHHEVRVVIRKINGRWLIHEIQID	1.77
SELEELVKRILKFILHSWDTGDEEFDKHMADPNVRVIYNGVDLHGMHTKDDLIKRLGWEQESRIRSIRAIGEKAHMDVELVWRFDGQQRDHDTRVHLDIVNGRSKNMEIRFK	0.165
SELEELWKRLLEEFVRLLHTGNEERILDLMDPHARVHTTFENHEFHDHGREAFHIMWEEFGINHLEFHRVRLFNGQVDITGSVNVNGREMETRIHLYIINGRVHQTIFRFR	0.996
SELEELWRKMVEFQERSNTTGDEKSFLEMLDPDMRIIIGDFEFHGRENAKDYLRRVDHIHHVEYRRVDLQGDKAHIEMHINGHWDGRTHRTDTHLHLRKFNGRWHVEDVQVD	1.41
SELEEQERTHIHKLMNAIETGDEDLFRRLFDPNVRVDVDGVEFIGREHLLILLRHMRMHARHFKEEDFSVQGDKVHLYGHLDEEIEINGKVTRRHIHVTWVLVKVNGKWVIHSQYVL	1.41
SELEEQVKYALELFIRTFETGDEDLSSQLLDPNTRLEINGREIHGRELVSKFWLKFATEMRLRRTHTRSIRNVDGKAINHTTIDVEIGDKRTTIDVELIAYKFDGRWVNEKIQFH	0.828
SELEERAEKMTKEFERAFVTGNWEEQVKLLDPNVRIDINGVIFVGREQYERLVREIWMHVEDFRVTSLELQGEKARTHVESDVIIRVNGRDIRKKTEEEIVVSKINGVWSVERIHVR	1.24
SELEESLEKFLRALRHLTETGDEDTWKRLLDPTTRLEINGKEIHGREDVSRHWKELRFRSEDPKDYKIVDGVLRLDTRVDGVFNGQHREVDVEVIVFKVDGRWEIKRIRYH	1.56

Sequence	protease stability score
SELEESVRWAAEVFVKYTLTGNEHLLSRYFDPNVRVHFDGVDLHGREELSKLFLHIRFRRIHLRSEKEFEGHAELDQEHDGHYNGVRHNRTLRLHMIKINGQWITEVFILH	1.34
SELEETLKRSYELLSRILETGDEHRLKSLADPHTRMDFNGVEVHGMHLTVQWMKEFGADHEQYEVRIKRLDVQGDKLHSHGLLIIRIFINGRTIDLKIETHMHAEKIDGRWVIREIIWR	1.36
SELEEWLFHFVKRFIRAELTGDEEEMLHLLDPNARMIIGDKHIHGRENIMELVRHFWHEIRIDHIEIKHVDFQGDKVIIHGQSDGQINGQRTTVDVRIQLIIINGRLKLLEFDNR	1.71
SELEEWTERMAKQMLDDVETGDEDRLLKLADPHVRVEFIVDGKIEEVHGREELRKLMERLGIKHFEIKRVSIRVIDGRIHVHNDGHMIIDGKTIPVQLHIHAEKVNGRWRVTDLSIRVG	1.51
SELEEYLTYLSKLFVHALITGNEDKYTEEFDPRTRFEMLINGRRIEYHGRESVREFLRHFLEEWRIHHIDTTEIEFIGDKARIHGEQEVHFNGRNITTKVRIDILFYNGKMRDIRIEIE	2.15
SELEHDARNAEHWFEETFRTGDEEDRERLLDPHVLVEFNGREYIGWHVFQKFFNDLGVDHMEVRIHDSKVFNGRVHLDGELTIRQGDKLIRSHVHLILTKVDGRWRMREIRIH	1.73
SELEHEMVEFFRLLVHAWRTGNEELAHRLIDPNVRLDVNGRHFHGWEEFFRFYKEIRLKDADLDSFRIIDGRVELDGTMHMEQGDKSRSVESHVLLEKIDGRWIVRSVRFH	1.44
SELEHLMEEAWRLLLEAIRTGDEKLTNKLLDPNVRIEVGEFHYHGRELMLTWFKYELKHLRFKDSRIDHFDVVDGVAKMRTTDTNLVNGRDVTLDVIYVILKVNGRWVFHSMEIR	0.861
SELEHLTEEVAERVLRVLLTGNEHWLDRLLDPHVRLHVNGQDFHGRENVKRWMHELGVDHREIEIEDYRSINGVFIVWGHIRIHQGEKEIKFKSEHIFVVFNGKMQSMEIRIL	1.58
SELEHMLREVLHLLYESLETGDEELLETLVDPRMRLYINGQLIHGMDLAVEIELRRSREMRFRDWKIHSIHVQGNKAFMDVRHVGQINGVHISLEHEILIHKINGRWTIEERITK	0.43
SELEHQVRKFVEIYVEAMRTGDEDVLRELADPHVRVVIGDKELHGWEEVVHKLRELRLEEIRVDRVRVIGDYVYVDGHSVWTYGDKRIEQRDIFTIRKVNGRWVLHDVILR	1.99
SELEHVEEKLLRDLVNAIKTGDEEFFNRLLDPDDRLHEKQGDKTIDFIGREEWKRFLSQIKNLKVEFRDVDLWNGRIHMRVVIIINGREHDLELEYVIVNGRFKQFHVRIR	2.2
SELEHWAERLTRILIHSLYTGDEESLLKLADPRVRNDVNGVHVVGMEWFLKVWNKYRDELRIHHIEVRDIKIINGVAHSTVREDGEINGKKLDVETHVELDTVNGRLRIVHIRIV	1.58
SELEKDQEDFVRIVEEMMNTGDEHVFKNLADPHVRNDVNGKDVHGRELVTKIWHFLLRHLGINHIELKHVEIYGNKVIIHMEERVGDKRVELVIVAEKVNGKWYLSEIRFEHK	1.28
SELEKELREFIKKVVEALATGDEDLLRELFDPHVRVKIGEWHFIGMEEMLRLIREIRMEIEEVRITELQIQGDKIHMETRLHGRLHIGDKERQTHYSTRVNVRKIDGQWITKSWEVH	2.04
SELEKFHEESLKSVLESWITGDEHLNRDLVDPDAKLNVNGREHHGWELITILLSQMRVHDFKRRDIRFQGDKIFIDGEIDGEINGQRIRLRIDIIAVKVNGKWLIKEVRVH	1.69
SELEKFIRKYSDDWRELHRTGDFEIFQELADPHMIFHSIVGDKRTEIHGRESYIEWLREELEHWRIHHIQLRRSTAIGDFAVVDGELDGEFNGQRERRKVKVDLFVVNGQTKHIEFRIH	1.19
SELEKHIKDYFDYIFTLLLTGDWDTLWRMADPNVRFHAEGHEIHGRELWEEFIRKFKNIKVHLHRSSLIGDYLFLDGELEINGRRIRTEIELVIVNGRLTEVSHRLR	0.807

— the NTF2 design screens of Basanta et al. (2020)
